# Assays:
# COS-7 cells = experiment: COS-7 cell spreading; assay type: cell-based
# Experimental: (§1) (a) is a schematic diagram which summarizes features of the Nogo proteins utilized in this study. (b) is a photograph of NIH-3T3 fibroblasts cultured on surfaces coated with Amino-Nogo, GST-Nogo-66 or no protein and stained for filamentous actin (scale bar, 40 μm). (c) is a photograph of chick E12 dorsal root ganglions cultured on surfaces coated with Amino-Nogo, GST-Nogo-66 or no protein (substrate-bound) or with 100 nM Nogo protein (soluble) (scale bar, 40 μm). […] (e) is a graph displaying experimental data where the percentage of 3T3 fibroblasts with an area greater than 1200 μm^2 (spread) was measured from experiments as in (b) on Nogo-coated surfaces (black) or with soluble 100 nM Nogo preparations (blue) (AM, Amino-Nogo; AM+Myc, Amino-Nogo preincubated with anti-Myc antibody; AM+Myc+Mo, AM+Myc preincubated with anti-mouse IgG antibody; Myc+Mo, anti-Myc antibody plus anti-murine IgG antibody). (f) is a graph displaying experimental data where the percentage of spread COS-7 cells was determined after culture on Nogo-coated surfaces or with soluble 100 nM Nogo preparations. (g) is a graph displaying experimental data where the effects of purified preparations of GST-Nogo-66 or Amino-Nogo on growth cone morphology was assessed in E12 dorsal root ganglion cultures at the indicated concentrations after thirty minutes. […]
# 3T3 fibroblasts = experiment: 3T3 fibroblast spreading; assay type: cell-based, mouse
# Experimental: (a) is a schematic diagram which summarizes features of the Nogo proteins utilized in this study. (b) is a photograph of NIH-3T3 fibroblasts cultured on surfaces coated with Amino-Nogo, GST-Nogo-66 or no protein and stained for filamentous actin (scale bar, 40 μm). (c) is a photograph of chick E12 dorsal root ganglions cultured on surfaces coated with Amino-Nogo, GST-Nogo-66 or no protein (substrate-bound) or with 100 nM Nogo protein (soluble) (scale bar, 40 μm). (d) is a photograph of a gel and an immunoblot where purified Amino-Nogo-Myc-His protein was subjected to SDS-PAGE and stained with Commassie Brilliant Blue (CBB) or immunoblotted with anti-Myc antibodies (Myc) (molecular weight markers of 200, 116, 97, 65 & 45 kDa are at left). (e) is a graph displaying experimental data where the percentage of 3T3 fibroblasts with an area greater than 1200 μm^2 (spread) was measured from experiments as in (b) on Nogo-coated surfaces (black) or with soluble 100 nM Nogo preparations (blue) (AM, Amino-Nogo; AM+Myc, Amino-Nogo preincubated with anti-Myc antibody; AM+Myc+Mo, AM+Myc preincubated with anti-mouse IgG antibody; Myc+Mo, anti-Myc antibody plus anti-murine IgG antibody). (f) is a graph displaying experimental data where the percentage of spread COS-7 cells was determined after culture on Nogo-coated surfaces or with soluble 100 nM Nogo preparations. (g) is a graph displaying experimental data where the effects of purified preparations of GST-Nogo-66 or Amino-Nogo on growth cone morphology was assessed in E12 dorsal root ganglion cultures at the indicated concentrations after thirty minutes. […] (h) is a graph displaying experimental data where the neurite outgrowth per cell in […] dorsal root ganglion cultures was quantitated from experiments as in (c) on Nogo-coated surfaces or with soluble 100 nM Nogo preparations. (i) is a graph displaying experimental data where the effects of Nogo preparations on neurite outgrowth in cerebellar granule neurons was measured.
# Assays of Nogo-A function have included growth cone collapse, neurite outgrowth, and fibroblast spreading with substrate-bound and soluble protein preparations (Caroni & Schwab, (1988) J. Cell Biol. 106, 1281-1288; GrandPré et al., (2000) Nature 403, 439-444; Chen et al., (2000) Nature 403, 434-439; Prinjha et al., (2000) Nature 403, 483-484). […] Since NI250 preparations and full length Nogo-A are non-permissive for 3T3 spreading, it was necessary to consider whether different domains of Nogo might subserve this in vitro activity. To facilitate a comparison of different Nogo-A domains, the acidic amino terminal 1040 amino acid fragment (Amino-Nogo) was expressed as a Myc-his tagged protein in HEK293T cells (FIG. 1d). The Nogo protein is present in cytosolic fractions. […]
# [1] = tested on: chick dorsal root ganglion neurons; experiment: Neurite outgrowth assay in chick DRG neurons; assay type: cell-based
# Experimental: (§2) For all experiments involving cell culture, the following methods were employed. The culture of embryonic chick E10 and E12 dorsal root ganglion explants and dissociated neurons utilized methods described for E7 dorsal root ganglion cultures (Takahashi et al., (1998) Nature Neurosci. 1, 487-493; Takahashi et al., (1999) Cell 99, 59-69; Goshima et al., (1995) Nature 376, 509-514; Jin & Strittmatter, (1997) J. Neurosci. […]). NGF-differentiated PC12 cells were cultured as described (Strittmatter et al., (1994) J. Neurosci. 14, 2327-2338). Embryonic spinal cord explants (rat E10 or chick E5) were cultured for 7-14 days in the presence of PDGF-AA to induce differentiation of some cells into mature oligodendrocytes (Vartanian et al., (1999) Proc. Natl. Acad. Sci. USA 96, 731-735). The procedure for growth cone collapse assays is identical to that for analysis of Sema3A-induced growth cone collapse (Takahashi et al., (1998) Nature Neurosci. 1, 487-493; Takahashi et al., (1999) Cell 99, 59-69; Goshima et al., (1995) Nature 376, 509-514; Jin & Strittmatter, (1997) J. Neurosci. 17, 6256-6263). The method for analysis of total neurite outgrowth has also been described (Goshima et al., (1995) Nature 376, 509-514; Jin & Strittmatter, (1997) J. Neurosci. 17, 6256-6263; Strittmatter et al., (1994) J. Neurosci. 14, 2327-2338). In outgrowth assays, proteins and peptides were added one hour after plating to minimize any effect on the total number of adherent cells. To test the effect of substrate-bound GST or GST-Nogo, the protein solutions were dried on poly-L-lysine coated glass, washed and then coated with laminin. For E12 cultures, the neuronal identity of cells was verified by staining with anti-neurofilament antibodies (2H3, Develomental Studies Hybridoma Bank) and neurites were traced by observation of rhodamine-phalloidin staining of F-actin in processes.
# For neurite outgrowth assays, plastic chamber slides were coated with 100 μg ml^−1 poly-L-lysine, washed, and dried. 3 μl drops of PBS containing GST-Nogo-66 were spotted and dried. Slides were then rinsed and coated with 10 μg ml fs24^−1 laminin before addition of dissociated E12 chick DRGs. AP-fusion proteins were added at the time of cell plating. Cultures were grown for 5-7 h after which neurite outgrowth was assessed.
# [2] = tested on: Mouse P4 cerebellar granule neurons; experiment: Cerebellar granule neuron axon outgrowth; assay type: cell-based
# Experimental: as §1
# [3] = tested on: chick E12 dorsal root ganglion growth cones; experiment: Growth cone collapse assay in chick dorsal root ganglion explants; assay type: cell-based; conditions: soluble form at 100 nM; chick E12 DRG
# Experimental: as §2
# The expression of recombinant Nogo in HEK293T cells allows a rigorous test of whether this protein has axon outgrowth inhibiting effects. Washed membrane fractions from vector- or hNogo-A-Myc-transfected HEK293T cells were added to chick E12 dorsal root ganglion explant cultures. Growth cone morphology was assessed after a thirty minute incubation at 37° C. by fixation and rhodamine-phalloidin staining.
# Briefly, for growth cone collapse, DRG explants were plated on plastic chamber slides precoated with 100 μg ml^−1 poly-L-lysine and 10 μg ml^−1 laminin. Cultures were grown 14-16 h prior to treatment.
# [4] = dimerized with anti-Myc antibody
# [5] = substrate-bound / coated surfaces
molecule,measurement,setting,value
"Amino-Nogo: acidic amino terminal 1040 amino acid fragment of Nogo-A expressed as a Myc-his tagged protein in HEK293T cells (protein, UniProt Q9NQC3 1-1040, looked up, fragment, Myc-His tag, acidic amino terminal 1040 amino acid fragment of Nogo-A expressed as a Myc-his tagged protein in HEK293T cells) MEDLDQSPLVSSSDSPPRPQPAFKYQFVREPEDEEEEEEEEEEDEDEDLEELEVLERKPAAGLSAAPVPTAPAAGAPLMDFGNDFVPPAPRGPLPAAPPVAPERQPSWDPSPVSSTVPAPSPLSAAAVSPSKLPEDDEPPARPPPPPPASVSPQAEPVWTPPAPAPAAPPSTPAAPKRRGSSGSVDETLFALPAASEPVIRSSAENMDLKEQPGNTISAGQEDFPSVLLETAASLPSLSPLSAASFKEHEYLGNLSTVLPTEGTLQENVSEASKEVSEKAKTLLIDRDLTEFSELEYSEMGSSFSVSPKAESAVIVANPREEIIVKNKDEEEKLVSNNILHNQQELPTALTKLVKEDEVVSSEKAKDSFNEKRVAVEAPMREEYADFKPFERVWEVKDSKEDSDMLAAGGKIESNLESKVDKKCFADSLEQTNHEKDSESSNDDTSFPSTPEGIKDRSGAYITCAPFNPAATESIATNIFPLLGDPTSENKTDEKKIEEKKAQIVTEKNTSTKTSNPFLVAAQDSETDYVTTDNLTKVTEEVVANMPEGLTPDLVQEACESELNEVTGTKIAYETKMDLVQTSEVMQESLYPAAQLCPSFEESEATPSPVLPDIVMEAPLNSAVPSAGASVIQPSSSPLEASSVNYESIKHEPENPPPYEEAMSVSLKKVSGIKEEIKEPENINAALQETEAPYISIACDLIKETKLSAEPAPDFSDYSEMAKVEQPVPDHSELVEDSSPDSEPVDLFSDDSIPDVPQKQDETVMLVKESLTETSFESMIEYENKEKLSALPPEGGKPYLESFKLSLDNTKDTLLPDEVSTLSKKEKIPLQMEELSTAVYSNDDLFISKEAQIRETETFSDSSPIEIIDEFPTLISSKTDSFSKLAREYTDLEVSHKSEIANAPDGAGSLPCTELPHDLSLKNIQPKVEEKISFSDDFSKNGSATSKVLLLPPDVSALATQAEIESIVKPKVLVKEAEKKLPSDTEKEDRSPSAIFSAELSKTSVVDLLYWRDIKKTGVVFGASLFLLLSLTVFSIVSVT",COS-7 spreading (in words),COS-7 cells; [4],inhibits
same,non-neuronal cell spreading (in words),"COS-7 cells; soluble, 100 nM",does not significantly modulate
same,3T3 spreading (in words),3T3 fibroblasts; [4],inhibits
same,non-neuronal cell spreading (in words),"3T3 fibroblasts; soluble, 100 nM",does not significantly modulate
same,3T3 fibroblast spreading (in words),3T3 fibroblasts; [5],fail to support 3T3 fibroblast spreading
same,dorsal root ganglion axon outgrowth (in words),"[1]; Amino-Nogo with anti-Myc antibody, further aggregated by anti-Mouse IgG antibody",significantly reduces
same,neurite/axon outgrowth (in words),[1]; soluble protein or peptide added to culture,does not significantly modulate
same,neurite/axon outgrowth (in words),[1]; [5],axonal outgrowth is reduced to low levels
same,cerebellar axon outgrowth (in words),[2]; [4],tends to reduce cerebellar axon outgrowth
same,cerebellar axon outgrowth (in words),[2]; further aggregated by anti-Mouse IgG antibody,significantly reduces
same,growth cone morphology (in words),[3],does not significantly modulate

# From US8394929B2, “Nogo receptor-mediated blockade of axonal growth” (Yale University, priority 2000, dated 2013)
